From patent publication US20110159013A1 (MERCK, published 2011) come the findings set out here.

As a reminder, the Kd is the concentration at which binding is half-saturated. Higher therefore signals weaker binding.

Changes are numbered by the printed parent chain.

The target in assay [1] is T1, biotinylated ADDLs (bADDLs), oligomers prepared from N-terminal biotinylated amyloid β1-42 (N-terminal biotin).
T1 construct: also called high molecular weight 10% bADDL
Kind of assay: titration ELISA on streptavidin-captured 10% biotinylated ADDL. (In general: In an ELISA, binding on a coated surface is turned into a signal by an enzyme label.)

For assay [2], the target named is ADDL fibril preparation (Aβ1-42 fibrils made in 10 mM hydrochloric acid). Kind of assay: solution equilibrium titration; free IgG by ELISA; GraFit.
Assay [3] has as its target T1, biotinylated ADDLs (bADDLs), oligomers …. Kind of assay: BIACORE, bADDL as antigen, IgG1 #1. (In general: Surface plasmon resonance follows binding to a sensor surface in real time, without labels.)
Assay [4] shares this target. Kind of assay: BIACORE, bADDL as antigen, Fab.
Assay [5] has the same target. Kind of assay: BIACORE, bADDL as antigen, IgG1 #2.
Assay [6] has as its target amyloid β1-42 peptide (Aβ1-42). Kind of assay: cell-based or functional assay.
Assay [7] deals with T2, amyloid beta (1-40) peptide.
T2 construct: Residues 1-40 counted on the Aβ1-42 entry; used as monomer-like control; also called Aβ1-40; Aβ1-40 monomer
Kind of assay: solution equilibrium titration; free IgG by ELISA; GraFit.

The target in assay [8] is T3, Aβ-derived diffusible ligands (synthetic ADDLs), soluble oligomers of amyloid β1-42.
T3 construct: number of copies varies (trimer, tetramer, 12-24 mer)
The assay is described as above.

Assay [9] deals with T4, higher molecular weight oligomers of the ADDL preparation.
T4 construct: also called higher molecular weight material (12-24 mer)
Kind of assay: western immunoblot of ADDLs after SDS-PAGE (column DENATURED SPECIES IDENTIFIED: HMW ADDLs). (In general: Immunoblotting shows a protein as a band on a membrane.)

The target in assay [10] is T5, tetramers of ADDLs (multi-dimensional conformation of soluble amyloid β1-42 oligomers, as defined by SDS-PAGE) (UniProt P05067 672-713).
T5 construct: domain: amyloid β1-42; It is a species within the ADDL preparation
Kind of assay: recognition of ADDL species defined by SDS-PAGE (see FIG. 3).

For assay [11], the target named is T6, trimers of ADDLs (multi-dimensional conformation of soluble amyloid β1-42 oligomers, as defined by SDS-PAGE) (UniProt P05067 672-713).
T6 construct: domain: amyloid β1-42; It is a species within the ADDL preparation
The description is as above.

The target of assay [12] is T7, SEC Peak 1 fraction of ADDLs (large aggregates, >50 kDa).
T7 construct: Size exclusion fraction of synthetic ADDLs; monomer, trimer, tetramer and 12-24 mers on SDS-PAGE
Kind of assay: sandwich ELISA with polyclonal M90 as capture antibody; signal on SEC Peak 1 divided by signal on SEC Peak 2 of ADDLs.

B1: humanized 26D6, CDR grafted, IgG1/kappa (antibody)
heavy: not shown
light: DVVMTQSPLSLPVTPGEPASISCRASQSIVHSNGNTYLEWYLQKPGQSPQLLIYRVSNRFSGVPDRFSGSGSGTDFTLKISRVEAEDVGVYYCFQVTHVPLTFGQGTKLEIKRTVAAPSVFIFPPSDEQLKSGTASVVCLLNNFYPREAKVQWKVDNALQSGNSQESVTEQDSKDSTYSLSSTLTLSKADYEKHKVYACEVTHQGLSSPVTKSFNRGEC
As to B1, the binding result in assay [1] was “binds”.

B2: humanized 26D6, CDR grafted, IgG2m4/kappa (antibody)
heavy: QVTLKESGPTLVKPTQTLTLTCTFSGFSLSTSGMGVSWIRQPPGKALEWLAHIYWDDDKQYNPSLKSRLTITKDTSKNQVVLTMTNMDPVDTATYYCARRASSSRYDDQFDYWGQGTLVPVSSASTKGPSVFPLAPCSRSTSESTAALGCLVKDYFPEPVTVSWNSGALTSGVHTFPAVLQSSGLYSLSSVVTVTSSNFGTQTYTCNVDHKPSNTKVDKTVERKCCVECPPCPAPPVAGPSVFLFPPKPKDTLMISRTPEVTCVVVDVSQEDPEVQFNWYVDGVEVHNAKTKPREEQFNSTFRVVSVLTVLHQDWLNGKEYKCKVSNKGLPSSIEKTISKTKGQPREPQVYTLPPSREEMTKNQVSLTCLVKGFYPSDIAVEWESNGQPENNYKTTPPMLDSDGSFFLYSKLTVDKSRWQQGNVFSCSVMHEALHNHYTQKSLSLSPGK
light: B1 light
For the molecule B2, in assay [1], the binding result is “binds”.

B3: murine anti-ADDL monoclonal antibody 3B3 (antibody, mouse IgG1, V domains shown)
VH: DVQLVESGGGLVQPGGSRKLSCAASGFTFSSFGMHWVRQAPEKGLEWVAYISRGSSTIYYADTVKGRFTISRDNPKNTLFLQMTSLRSEDTAMYYCARGITTALDYWGQGTSVTVSS
VL: DVLMTQTPLSLPVSLGDQASISCRSSQSIVHSNGNTYLEWYLQKPGQSPKLLIYKASNRFSGVPDRFSGSGSGTDFTLKISRVEAEDLGVYYCFQGSHVPPTFGGGTKLEIK
Turning to B3, in assay [2], the Kd was found to be 7.21 nM.

B4: affinity-matured humanized 20C2-1A, IgG1 (humanized A version) (antibody, V domains shown)
VH: QVTLKESGPALVKPTQTLTLTCTFSGFSLSTSGMGVGWIRQPPGKALEWLAHIWWDDDKSYNPSLKSRLTISKDTSKNQVVLTMTNMDPVDTATYYCARRQLGLRSIDAMDYWGQGTTVTVSS
VL: DVVMTQSPLSLPVTPGEPASISCRSSQSILHSNGNTYLEWYLQKPGQSPQLLIYKVSNRFSGVPDRFSGSGSGTDFTLKISRVEAEDVGVYYCFQASRVPLTFGQGTKLEIKR
notes: also called clone SJ-p2-60
With B4, the dissociation constant (Kd) in assay [3] was found to be 0.075 nM.

B5: humanized 20C2, veneered, HCVR VenA IgG1 with veneered 20C2 LCVR Kappa (antibody, V domains shown)
VH: B4 VH with A10G, L11I, V12L, T15S, T19S, I39F, A46G, V81F, M84I
VL: B4 VL with T14S, P15L, E17D, V88L, A96G, R98L, Q105A, I111L
notes: also called 20C2 VenA
B5: in assay [1], the binding result is “binds”.

B6: Fab fragment of affinity-matured humanized 20C2-18A (Fab, V domains shown)
VH: B4 VH
VL: B4 VL with F94M, A96S, R98F
In assay [4], B6 gave a Kd of 85 nM.

B7: humanized 4E2, CDR grafted, IgG1/kappa (antibody, V domains shown)
VH: QVTLKESGPALVKPTQTLTLTCTFSGFSLSTSGMGVGWIRQPPGKALEWLAHIWWDDDKYYNPSLKSQLTISKDTSKNQVVLTMTNMDPVDTATYYCARRSINSVVPEDYFDYWGQGTTVTVSS
VL: B4 VL with L30V, A96G, R98H
notes: also called 4E2 (humanized)
As for B7, the binding result in [1] is “binds”.

B8: humanized 3B3, CDR grafted, IgG1/kappa (antibody, V domains shown)
VH: EVQLVESGGGLVQPGGSLRLSCAASGFTFSSFGMHWVRQAPGKGLEWVAYISRGSSTIYYADTVKGRFTISRDNAKNSLYLQMNSLRAEDTAVYYCARGITTALDYWGQGTLVTVSS
VL: B4 VL with L30V, V56A, A96G, R98H, L101P
notes: also called 3B3 (humanized)
In the case of B8, the binding result in assay [1] is reported as “binds”.

B9: humanized 1F6, CDR grafted, IgG1/kappa (antibody, V domains shown)
VH: EVQLVESGGGLVQPGGSLRLSCAASGFTFSSFGMHWVRQAPGKGLEWVAYISSVSSTIYYADTVKGRFTISRDNSKNTLYLQMNSLRAEDTAVYYCARSGYGSSYGYGMDYWGQGTLVTVSS
VL: B4 VL with L30V, A96G, R98H
notes: also called 1F6 (humanized)
Consider B9, for which the binding result in assay [1] is “binds”.

B10: affinity-matured humanized 20C2-2A, IgG1 (humanized A version) (antibody, V domains shown)
VH: B4 VH
VL: B4 VL with S97T
notes: also called clone SJ-p1-18
B10: the Kd in [3] worked out at 0.015 nM; in assay [5], 0.0003 nM.

B11: murine anti-ADDL monoclonal antibody 2B4 (antibody, mouse IgG2b, V domains shown)
VH: not shown
VL: DVVMTQTPLSLPVSLGDQASISCRSSQSLVHSNGNTYLHWYLQKPGQSPKLLIYKVSNRFFGVPDRFSGSGSGTDFTLKISRVEAEDLGVYFCSQTTYVPLTFGAGTKLELK
On to B11, for which, in assay [6], the “IC50 (read off the curve)” value is ~100 nM. Besides, the Kd in assay [2] amounted to 10.5 nM; in [7] it was 27.6 nM; in assay [8], 2.09 nM.

B12: murine anti-ADDL monoclonal antibody 1F4 (antibody, mouse IgG1, V domains shown)
VH: B9 VH with E1D, L18R, R19K, G42E, S75P, Y80F, N84T, A88S, V93M
VL: B3 VL with A56V, P101L, G105A, I111L
Regarding B12, the equilibrium dissociation constant (Kd) in assay [2] was found to be 12.5 nM; in [8], 9.24 nM.

B13: murine anti-ADDL monoclonal antibody 2A10 (antibody, mouse IgG1, V domains shown)
VH: QVTLKESGPGILKPSQTLSLTCSFSGFSLSTSGMGVGWIRQPSGKGLEWLAHIWWDDDKYYNPSLKSQLTISKDTSRNQVFLKITSVDTADTATYYCARRSISTLVPEDYFDYWGQGTTLTVSS
VL: B3 VL with A56V, P101L, G105A, I111L
Regarding B13, the binding result in [9], in assay [10] and in assay [11] was “binds” each time. In assay [2], this molecule returned a Kd of 6.72 nM. The “Peak 1/Peak 2 Ratio (ELISA)” value in [12] is 20.

B14: murine anti-ADDL monoclonal antibody 5F10 (antibody, V domains shown)
VH: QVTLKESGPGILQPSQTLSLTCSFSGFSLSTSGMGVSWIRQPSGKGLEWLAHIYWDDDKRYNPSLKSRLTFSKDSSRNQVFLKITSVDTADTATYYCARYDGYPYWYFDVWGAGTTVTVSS
VL: B11 VL with D1V, V3L, F61S, S94F, T96S, Y98H
On to B14, for which the affinity in [2], expressed as Kd, was 28.9 nM. For the same molecule, in assay [12], the “Peak 1/Peak 2 Ratio (ELISA)” value amounted to 18.

B15: murine anti-ADDL monoclonal antibody 2D6 (antibody, mouse IgG1, V domains shown)
VH: B13 VH with L105V, V106I, T119I
VL: B3 VL with P12T, A56V, P101L, G105A, I111L
In the case of B15, in assay [2], binding was characterised by a dissociation constant (Kd) of 14.4 nM. Also, the “Peak 1/Peak 2 Ratio (ELISA)” value in assay [12] is 19.

B16: murine anti-ADDL monoclonal antibody 4C2 (antibody, mouse IgG1, V domains shown)
VH: B13 VH with S103T, L105V, D112A
VL: B3 VL with T7S, A56V, P101L, G105A, I111L
Take B16: the binding result in assay [9] was “binds”. Further, the dissociation constant Kd in [2] was 19.2 nM. For the same molecule, in assay [12], the “Peak 1/Peak 2 Ratio (ELISA)” value amounted to 18.

B17: humanized 2H4, CDR grafted, IgG1/kappa (antibody, V domains shown)
VH: EVQLVESGGGLVQPGGSLRLSCAASGFTFSSFGMHWVRQAPGKGLEWVAYIRSGSSTIYYADTVKGRFTISRDNSKNTLYLQMNSLRAEDTAVYYCARGGNYYGSSRFAYWGQGTLVTVSS
VL: DIQMTQSPSSLSASVGDRVTITCKASQDINSYLSWFQQKPGKAPKTLIYRANRFVDGVPSRFSGSGSGTDYTLTISSLQPEDFATYFCLQYDEFPLTFGGGTKVEIKR
notes: also called 2H4 (humanized)
On to B17, for which the binding result in assay [1] is listed as “binds”.
